The results in this text go back to patent US20220064277A1 (NEURACLE SCIENCE, published 2022).

The target of this assay is human FAM19A5-Fc protein (Lot# 170815) (human, UniProt Q7Z5A7 44-132). Kind of assay: cell-based or functional assay.
Sequence of human FAM19A5-Fc protein (Lot# 170815) (Q7Z5A7 other isoform, or with tags, fused parts or gaps): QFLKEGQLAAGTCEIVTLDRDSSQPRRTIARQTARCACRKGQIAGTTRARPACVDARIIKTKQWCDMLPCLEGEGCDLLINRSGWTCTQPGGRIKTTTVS

B1: anti-FAM19A5 antibody (clone "1-30"; Lot# A5m180831) (antibody, V domains shown)
VH: AVTLDESGGGLQTPGGALRLSCKASGFDFESFNMFWVRQAPGKGLEYVSQISSSEEDENYAPAVKGRATISRDNGQSTLYLQMNSLRAEDTGTYYCAKSSYDCPYGHCSSGVDSAGEIDAWGHGTEVIVSS
VL: ALTQPSSVSANPGETVKITCSGGGSEEEQYYYGWYQQKPGSAPVTLIYQDEERPSDIPSRFSGSTSGSTATLTITGVQAGDEADYYCGSWDSEDEDHFGAGTTLTVL
As for B1, the “IC50 for inhibition of the FAM19A5-Fc-enhanced TNF-α production by LPS-stimulated BV2 cells (mouse TNF-α ELISA)” value came out at 11.5 µg/mL.
